The source of these data is patent US20160031944A1 (PROTAGONIST THERAPEUTICS, published 2016).

Test [1] has as its target T1, α4β1 (R&D Systems #5668-A4) (UniProt P13612 34-977; P05556 21-728).
T1 construct: bought; printed as αβ1; detected with mouse anti-human CD49d antibody 9F10; also called αβ1; A4B1
The experiment in a line: α4β1-VCAM competition ELISA. The protocol:
The solution was removed by shaking and then blocked with 250 ul of 1% BSA in 1×PBS per well. The wells were then incubated at room temperature for 1 hr with shaking. Each well was then washed once with wash buffer (50 mM Tris-HCl pH7.6, 100 mM NaCL, 1 mM MnCl₂ or MgCl₂, 0.05% Tween-20). 25 ul of serial dilutions of peptides starting at 200 μM in assay buffer (Assay buffer: 50 mM Tris-HCl pH7.6, 100 mM NaCl, 1 mM MnCl₂ or MgCl₂, 0.05% Tween-20) was added to each well. […] The final peptide and αβ1 concentrations were 100 μM and 60 nM, respectively. The plates were then incubated at 37° C. for 2 hr. The solution was then removed by shaking and each well was washed three times with wash buffer. 50 ul of 9F10 antibody at 4 ug/ml (purified mouse anti-human CD49d, BD Bioscience Cat#555502) was then added to each well, and the plate was incubated at room temperature for 1 hr with shaking. The solution was again removed by shaking, and each well was washed three times with wash buffer. 50 ul of peroxidase-conjugated AffiniPure Goat anti-mouse IgG (Jackson immune research cat #115-035-003) diluted in 1:5000 in assay buffer was added to each well. The plate was incubated at room temperature for 30 min with shaking. Each well was then washed 3 times with wash buffer. […] The reaction was stepped with 2N H₂SO₄ and absorbance was read at 450 nm.

Test [2] deals with T2, rh integrin α4β7 (R&D Systems #5397-A30) (human, UniProt P13612 34-977; P26010 20-723).
T2 construct: bought; coated on a nickel coated plate at 800 ng/well; also called A4B7
T2 sequence (P13612 34-977 limits assumed, chain 1 of 2): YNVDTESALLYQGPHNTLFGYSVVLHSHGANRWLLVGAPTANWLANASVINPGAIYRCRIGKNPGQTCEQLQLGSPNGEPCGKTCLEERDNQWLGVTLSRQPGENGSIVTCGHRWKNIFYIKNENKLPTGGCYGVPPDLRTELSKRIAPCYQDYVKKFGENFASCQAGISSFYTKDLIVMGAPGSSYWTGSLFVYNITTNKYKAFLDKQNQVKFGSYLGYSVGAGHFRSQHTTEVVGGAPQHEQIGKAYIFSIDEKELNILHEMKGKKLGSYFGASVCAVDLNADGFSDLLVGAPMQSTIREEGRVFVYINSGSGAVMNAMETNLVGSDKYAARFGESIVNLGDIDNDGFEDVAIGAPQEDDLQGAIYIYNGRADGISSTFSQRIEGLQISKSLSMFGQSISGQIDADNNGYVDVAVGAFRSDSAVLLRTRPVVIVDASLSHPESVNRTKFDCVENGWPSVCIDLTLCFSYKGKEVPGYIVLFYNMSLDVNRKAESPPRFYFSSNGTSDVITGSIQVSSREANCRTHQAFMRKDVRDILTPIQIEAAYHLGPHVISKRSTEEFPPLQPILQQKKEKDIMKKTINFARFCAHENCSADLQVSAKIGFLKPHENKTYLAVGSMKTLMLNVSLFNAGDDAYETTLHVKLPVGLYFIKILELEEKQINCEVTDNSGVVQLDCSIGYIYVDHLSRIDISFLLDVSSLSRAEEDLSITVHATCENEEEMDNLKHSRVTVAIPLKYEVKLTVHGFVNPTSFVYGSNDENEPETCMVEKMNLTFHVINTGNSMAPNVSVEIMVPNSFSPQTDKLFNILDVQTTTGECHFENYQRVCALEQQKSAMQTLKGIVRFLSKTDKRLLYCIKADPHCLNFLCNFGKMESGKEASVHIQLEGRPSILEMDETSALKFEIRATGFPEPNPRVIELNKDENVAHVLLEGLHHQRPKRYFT
T2 sequence (P26010 20-723 limits assumed, chain 2 of 2): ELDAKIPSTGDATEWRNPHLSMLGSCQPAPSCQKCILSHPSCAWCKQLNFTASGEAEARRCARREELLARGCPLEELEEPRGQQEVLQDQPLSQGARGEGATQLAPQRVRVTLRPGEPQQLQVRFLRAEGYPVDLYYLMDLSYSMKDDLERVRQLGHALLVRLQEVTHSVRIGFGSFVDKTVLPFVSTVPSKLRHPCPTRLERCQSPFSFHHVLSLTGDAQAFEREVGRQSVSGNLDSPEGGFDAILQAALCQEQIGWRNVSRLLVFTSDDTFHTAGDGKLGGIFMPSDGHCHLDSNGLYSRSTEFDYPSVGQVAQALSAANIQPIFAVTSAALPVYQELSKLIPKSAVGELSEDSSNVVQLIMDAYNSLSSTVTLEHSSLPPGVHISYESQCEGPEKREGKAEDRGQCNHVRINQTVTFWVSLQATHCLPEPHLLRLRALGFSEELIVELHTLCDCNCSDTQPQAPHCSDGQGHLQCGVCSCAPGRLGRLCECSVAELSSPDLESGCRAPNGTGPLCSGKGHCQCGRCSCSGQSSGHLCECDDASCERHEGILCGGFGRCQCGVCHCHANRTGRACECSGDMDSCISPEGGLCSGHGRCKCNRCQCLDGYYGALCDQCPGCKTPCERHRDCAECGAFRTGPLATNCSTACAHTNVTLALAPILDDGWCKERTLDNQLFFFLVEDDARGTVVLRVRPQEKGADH
Description: α4β7-MAdCAM competition ELISA. The protocol: A nickel coated plate (Pierce #15442) was coated with rh integrin α4β7 (R&D Systems #5397-A30) at 800 ng/well and incubated at room temperature with shaking for 1 hr. The solution was then removed by shaking and blocked with assay buffer (50 mM Tris-HCl pH7.6, 150 mM NaCl, 1 mM MnCl₂ or MgCl₂, 0.05% Tween-20 and 0.5% BSA) at 250 ul/well. The plate was then incubated at room temperature for 1 hr. Each well was washed 3 times with wash buffer (50 mM Tris-HCl pH7.6, 100 mM NaCl, 1 mM MnCl₂ or MgCl₂, 0.05% Tween-20). To each well was added 25 ul of a serial dilution (3-fold dilutions in assay buffer) of peptides starting at 20 μM. 25 ul of recombinant human MAdCAM-1 (R&D Systems #6056-MC) was then added to each well at a fixed concentration 20 nM. The final starting peptide concentration was 10 μM, and the final MAdCAM-1 concentration was 10 nM. The plates were then incubated at room temperature for 1 hr to reach binding equilibrium. The wells were then washed three times with wash buffer. 50 ul of mouse anti-human IgG1-HRP (Invitrogen #A10648) diluted in 1:2000 in assay buffer was then added to each well. The wells were incubated at room temperature for 45 min with shaking. The wells were then washed 3 times with wash buffer. 100 ul of TMB were then added to each well and closely observe during development time. The reaction was stopped with 2N H₂SO₄ and absorbance was read at 450 nm.
For orientation: ELISA stands for enzyme-linked immunosorbent assay.

T1 sequence (P13612 34-977 limits assumed, chain 1 of 2): as the sequence (P13612 34-977 limits assumed, chain 1 of 2) above
T1 sequence (P05556 21-728 limits assumed, chain 2 of 2): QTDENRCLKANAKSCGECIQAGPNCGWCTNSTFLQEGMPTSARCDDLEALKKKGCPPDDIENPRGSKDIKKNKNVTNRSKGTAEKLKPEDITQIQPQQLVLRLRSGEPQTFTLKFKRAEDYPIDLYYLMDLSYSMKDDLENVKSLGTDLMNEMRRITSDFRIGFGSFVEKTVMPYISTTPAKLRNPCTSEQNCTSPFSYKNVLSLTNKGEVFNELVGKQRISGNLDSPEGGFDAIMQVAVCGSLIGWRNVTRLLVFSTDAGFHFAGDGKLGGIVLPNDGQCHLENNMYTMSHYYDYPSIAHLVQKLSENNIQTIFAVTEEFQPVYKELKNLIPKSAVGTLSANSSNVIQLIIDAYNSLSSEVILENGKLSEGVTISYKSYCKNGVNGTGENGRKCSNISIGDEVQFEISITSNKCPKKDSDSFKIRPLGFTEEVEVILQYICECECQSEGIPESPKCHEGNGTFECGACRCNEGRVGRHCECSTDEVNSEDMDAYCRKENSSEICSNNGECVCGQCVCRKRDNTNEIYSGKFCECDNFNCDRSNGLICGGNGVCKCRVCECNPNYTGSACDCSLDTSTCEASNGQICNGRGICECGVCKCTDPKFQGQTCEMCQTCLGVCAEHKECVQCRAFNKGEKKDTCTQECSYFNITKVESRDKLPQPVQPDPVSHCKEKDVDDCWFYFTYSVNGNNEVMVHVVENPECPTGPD

As a reminder, the IC50 is the concentration that inhibits the measured activity by half. As for Ac-CRSDTLCGE-NH2 (also: cyclised, mode not given here, also called control peptide) [SEQ ID NO 385], the IC50 in test [1] came to 2020 nM; in test [2], 97 nM.
